Measurements taken from article PMC7854685, “Histone Parylation factor 1 contributes to the inhibition of PARP1 by cancer drugs” (Nature Communications, 2021).

Columns and labels:
[1] = biological target: T1, Poly-(ADP-ribose) polymerase 1 (PARP1), wild type, labelled with Alexa488, bound to p18mer DNA (UniProt P09874 1-1014, Alexa488 C4 maleimide label (extent of labeling typically 50-100%)); test: FRET or BRET; as a3 but with olaparib (1 uM): Alexa647-HPF1 titrated into Alexa488-PARP1 (0.2 uM) premixed with p18mer DNA (0.2 uM) and olaparib; binding buffer; details: both partners purified
T1 construct: Poly-(ADP-ribose) polymerase 1 (PARP1), wild type; In the assay premixed with p18mer double-stranded DNA (0.2 uM); the DNA is no protein chain; also called PARP1 - p18mer complex; 488-labeled PARP1

[2] = biological target: T1, Poly-(ADP-ribose) polymerase 1 (PARP1), …; test: FRET or BRET; Alexa647-HPF1 (0.6-10,000 nM) titrated into Alexa488-PARP1 (0.2 uM) premixed with p18mer DNA (0.2 uM) and DMSO (control, no olaparib); binding buffer 50 mM Tris-HCl pH 8.0, 50 mM NaCl, 1 mM MgCl2, 0.1 mM EDTA, 0.01% IGEPAL; details: both partners purified

T1 sequence (P09874 whole entry): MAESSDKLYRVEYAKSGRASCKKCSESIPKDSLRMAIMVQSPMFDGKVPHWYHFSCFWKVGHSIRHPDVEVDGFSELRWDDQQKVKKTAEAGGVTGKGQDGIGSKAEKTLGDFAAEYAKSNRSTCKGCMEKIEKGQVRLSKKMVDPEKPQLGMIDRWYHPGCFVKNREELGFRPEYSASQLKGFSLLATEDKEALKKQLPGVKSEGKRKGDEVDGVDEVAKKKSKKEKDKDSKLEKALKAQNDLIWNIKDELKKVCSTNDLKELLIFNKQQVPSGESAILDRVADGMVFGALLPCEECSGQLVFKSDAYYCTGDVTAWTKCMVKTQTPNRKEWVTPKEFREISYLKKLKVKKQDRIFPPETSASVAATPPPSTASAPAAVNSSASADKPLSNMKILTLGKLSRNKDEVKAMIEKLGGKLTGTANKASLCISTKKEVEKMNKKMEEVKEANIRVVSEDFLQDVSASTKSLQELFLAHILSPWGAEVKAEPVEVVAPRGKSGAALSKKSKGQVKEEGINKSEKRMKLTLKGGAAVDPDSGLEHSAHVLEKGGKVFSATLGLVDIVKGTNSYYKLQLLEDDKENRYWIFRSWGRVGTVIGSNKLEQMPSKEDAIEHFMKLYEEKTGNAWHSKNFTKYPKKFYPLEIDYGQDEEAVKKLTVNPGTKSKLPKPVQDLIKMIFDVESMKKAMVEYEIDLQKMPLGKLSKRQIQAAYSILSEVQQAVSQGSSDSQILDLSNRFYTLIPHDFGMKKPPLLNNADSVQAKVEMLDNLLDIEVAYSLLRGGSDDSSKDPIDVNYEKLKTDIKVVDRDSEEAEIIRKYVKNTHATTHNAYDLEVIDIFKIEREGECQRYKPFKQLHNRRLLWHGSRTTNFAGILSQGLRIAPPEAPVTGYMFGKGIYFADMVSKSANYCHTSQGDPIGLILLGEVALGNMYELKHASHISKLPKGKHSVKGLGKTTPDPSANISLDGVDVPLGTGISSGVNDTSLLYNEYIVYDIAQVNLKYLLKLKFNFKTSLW

B1: Histone PARylation factor 1 (HPF1), labelled with Alexa647 (natural protein)
chain: LRKEVENHYKLSLPEDFYHFWKFCEELDPEKPSDSLSASLGLQLVGPYDILAGKHKTKKKSTGLNFNLHWRFYYDPPEFQTIIIGDNKTQYHMGYFRDSPDEFPVYVGINEAKKNCIIVPNGDNVFAAVKLFLTKKLREITDKKKINLLKNIDEKLTEAARELGYSLEQRTVKMKQRDKKVVTKTFHGAGLVVPVDKNDVGYRELPETDADLKRICKTIVEAASDEERLKAFAPIQEMMTFVQFANDECDYGMGLELGMDLFCYGSHYFHKVAGQLLPLAYNLLKRNLFAEIIEEHLANRSQENIDQLAA
modifications: Alexa647 C2 maleimide label (extent of labeling typically 50-100%)
notes: Histone PARylation factor 1 (HPF1); also called wild-type protein
For B1, which Kd [1] is on record?
The Kd was 1200 nM.

And the Kd [2]?
The Kd was 3800 nM.
